Source: the RNAGym collection of RNA variant scans (doi:10.7554/elife.80360)

B1: Hairpin Ribozyme (parent)
chain: GUCCUCUUUCACGUGCGCGUGAAAGAGAGAAGUGAACCAGAGAAACACACGUUGUGGUAUAUUACCUGGUA

Variants of: B1
Assay: self-cleavage, relative activity (ratio to wild type); higher = more cleavage; co-transcriptional

| Variant | self-cleavage |
| --- | --- |
| GUCCUCUUUCACGUGCGCGUGACAGAAAGAAGUGAACCAGAGAAACACACGUUGUGGUAUAUUACCUGGUA | 0.464 |
| GUCCUCUUUCACGUGCGCGUGACAGACAGAAGUGAACCAGAGAAACACACGUUGUGGUAUAUUACCUGGUA | 0.187 |
| GUCCUCUUUCACGUGCGCGUGACAGAGACAAGUGAACCAGAGAAACACACGUUGUGGUAUAUUACCUGGUA | 0.126 |
| GUCCUCUUUCACGUGCGCGUGACAGAGAGAAGUGAACCACAGAAACACACGUUGUGGUAUAUUACCUGGUA | 0.0333 |
| GUCCUCUUUCACGUGCGCGUGACAGAGAGAAGUGAACCAGAGAAACACACGUUCUGGUAUAUUACCUGGUA | 0.337 |
| GUCCUCUUUCACGUGCGCGUGACAGAGAGAAGUGAACCAGAGAAACACACGUUGUAGUAUAUUACCUGGUA | 0.187 |
| GUCCUCUUUCACGUGCGCGUGACAGAGAGAAGUGAACCAGAGAAACACACGUUGUGAUAUAUUACCUGGUA | 0.196 |
| GUCCUCUUUCACGUGCGCGUGACAGAGAGAAGCGAACCAGAGAAACACACGUUGUGGUAUAUUACCUGGUA | 0.307 |
| GUCCUCUUUCACGUGCGCGUGACAGAGAGAAGGGAACCAGAGAAACACACGUUGUGGUAUAUUACCUGGUA | 0.171 |
| GUCCUCUUUCACGUGCGCGUGACAGAGAGAAGUGAACCAGAGAAACACACGCUGUGGUAUAUUACCUGGUA | 0.77 |
| GUCCUCUUUCACGUGCGCGUGACAGAGAGAAGUGAACCAGAGAAACACACGGUGUGGUAUAUUACCUGGUA | 0.489 |
| GUCCUCUUUCACGUGCGCGUGACAGAGAGAAGUGAACCAGAGAAACACACGUCGUGGUAUAUUACCUGGUA | 0.702 |
| GUCCUCUUUCACGUGCGCGUGACAGAGAGAAGUGAACCAGAGAAACACACGUGGUGGUAUAUUACCUGGUA | 0.562 |
| GUCCUCUUUCACGUGCGCGUGACAGAGAGAAGUGAACCAGAGAAACACACGUUGUGGUAGAUUACCUGGUA | 0.61 |
| GUCCUCUUUCACGUGCGCGUGACAGAGAGAAGUGAACCAGAGAAACACACGUUGUGGUAUAGUACCUGGUA | 0.0867 |
| GUCCUCUUUCACGUGCGCGUGACAGAGAGAAGUGAACCAGAGAAACACACGUUGUGGUAUAUUACCAGGUA | 0.211 |
| GUCCUCUUUCACGUGCGCGUGACAGAGAGAAGUGAACCAGAGAAACACACGUUGUGGUAUAUUACCCGGUA | 0.249 |
| GUCCUCUUUCACGUGCGCGUGAGAGAGAGAAGUGAACCAGAGAAACACACGUUGUGGUAUAUUACCUGGUA | 0.851 |
| GUCCUCUUUCACGUGCGCGUGAGGGAGAGAAGUGAACCAGAGAAACACACGUUGUGGUAUAUUACCUGGUA | 0.715 |
| GUCCUCUUUCACGUGCGCGUGAGAGCGAGAAGUGAACCAGAGAAACACACGUUGUGGUAUAUUACCUGGUA | 0.524 |
| GUCCUCUUUCACGUGCGCGUGAGAGGGAGAAGUGAACCAGAGAAACACACGUUGUGGUAUAUUACCUGGUA | 0.648 |
| GUCCUCUUUCACGUGCGCGUGAGAGAGGGAAGUGAACCAGAGAAACACACGUUGUGGUAUAUUACCUGGUA | 1.23 |
| GUCCUCUUUCACGUGCGCGUGAGAGAGAGGAGUGAACCAGAGAAACACACGUUGUGGUAUAUUACCUGGUA | 0.211 |
| GUCCUCUUUCACGUGCGCGUGAGAGAGAGAGGUGAACCAGAGAAACACACGUUGUGGUAUAUUACCUGGUA | 0.416 |
| GUCCUCUUUCACGUGCGCGUGAGAGAGAGAAGUGCACCAGAGAAACACACGUUGUGGUAUAUUACCUGGUA | 1 |
| GUCCUCUUUCACGUGCGCGUGAGAGAGAGAAGUGUACCAGAGAAACACACGUUGUGGUAUAUUACCUGGUA | 0.626 |

| Variant | self-cleavage |
| --- | --- |
| GUCCUCUUUCACGUGCGCGUGAGAGAGAGAAGUGAACCAGCGAAACACACGUUGUGGUAUAUUACCUGGUA | 1.19 |
| GUCCUCUUUCACGUGCGCGUGAGAGAGAGAAGUGAACCAGUGAAACACACGUUGUGGUAUAUUACCUGGUA | 1.09 |
| GUCCUCUUUCACGUGCGCGUGAGAGAGAGAAGUGAACCAGAGCAACACACGUUGUGGUAUAUUACCUGGUA | 0.169 |
| GUCCUCUUUCACGUGCGCGUGAGAGAGAGAAGUGAACCAGAGACACACACGUUGUGGUAUAUUACCUGGUA | 0.0975 |
| GUCCUCUUUCACGUGCGCGUGAGAGAGAGAAGUGAACCAGAGAAACACACGUUGUGGUCUAUUACCUGGUA | 0.0706 |
| GUCCUCUUUCACGUGCGCGUGAGAGAGAGAAGUGAACCAGAGAAACACACGUUGUGGUAUAUUCCCUGGUA | 0.2 |
| GUCCUCUUUCACGUGCGCGUGAGAGAGAGAAGUGAAACAGAGAAACACACGUUGUGGUAUAUUACCUGGUA | 0.287 |
| GUCCUCUUUCACGUGCGCGUGAGAGAGAGAAGUGAAGCAGAGAAACACACGUUGUGGUAUAUUACCUGGUA | 0.311 |
| GUCCUCUUUCACGUGCGCGUGAGAGAGAGAAGUGAACCAGAGAAAAACACGUUGUGGUAUAUUACCUGGUA | 0.132 |
| GUCCUCUUUCACGUGCGCGUGAGAGAGAGAAGUGAACCAGAGAAAGACACGUUGUGGUAUAUUACCUGGUA | 0.245 |
| GUCCUCUUUCACGUGCGCGUGAGAGAGAGAAGUGAACCAGAGAAACAUACGUUGUGGUAUAUUACCUGGUA | 0.232 |
| GUCCUCUUUCACGUGCGCGUGAGAGAGAGAAGUGAACCAGAGAAACACAGGUUGUGGUAUAUUACCUGGUA | 0.153 |
| GUCCUCUUUCACGUGCGCGUGAGAGAGAGAAGUGAACCAGAGAAACACACGUUGUGGUAUAUUAUCUGGUA | 0.349 |
| GUCCUCUUUCACGUGCGCGUGAGAGAGAGAAGUGAACCAGAGAAACACACGUUGUGGUAUAUUACUUGGUA | 0.456 |
| GUCCUCUUUCACGUGCGCGUGAGAAAGAGAAGUGAACCAGAGAAACACACGUUGUGGUAUAUUACCUGGUA | 0.413 |
| GUCCUCUUUCACGUGCGCGUGAGAUAGAGAAGUGAACCAGAGAAACACACGUUGUGGUAUAUUACCUGGUA | 0.357 |
| GUCCUCUUUCACGUGCGCGUGAGAGACAGAAGUGAACCAGAGAAACACACGUUGUGGUAUAUUACCUGGUA | 0.149 |
| GUCCUCUUUCACGUGCGCGUGAGAGAGAAAAGUGAACCAGAGAAACACACGUUGUGGUAUAUUACCUGGUA | 0.0583 |
| GUCCUCUUUCACGUGCGCGUGAGAGAGACAAGUGAACCAGAGAAACACACGUUGUGGUAUAUUACCUGGUA | 0.123 |
| GUCCUCUUUCACGUGCGCGUGAGAGAGAGAACUGAACCAGAGAAACACACGUUGUGGUAUAUUACCUGGUA | 0.163 |
| GUCCUCUUUCACGUGCGCGUGAGAGAGAGAAUUGAACCAGAGAAACACACGUUGUGGUAUAUUACCUGGUA | 0.0923 |
| GUCCUCUUUCACGUGCGCGUGAGAGAGAGAAGUCAACCAGAGAAACACACGUUGUGGUAUAUUACCUGGUA | 1.07 |
| GUCCUCUUUCACGUGCGCGUGAGAGAGAGAAGUGAACCAGACAAACACACGUUGUGGUAUAUUACCUGGUA | 0.33 |
| GUCCUCUUUCACGUGCGCGUGAGAGAGAGAAGUGAACCAGAGAAACACACAUUGUGGUAUAUUACCUGGUA | 0.781 |
| GUCCUCUUUCACGUGCGCGUGAGAGAGAGAAGUGAACCAGAGAAACACACCUUGUGGUAUAUUACCUGGUA | 0.91 |
| GUCCUCUUUCACGUGCGCGUGAGAGAGAGAAGUGAACCAGAGAAACACACGUUCUGGUAUAUUACCUGGUA | 0.363 |

| Variant | self-cleavage |
| --- | --- |
| GUCCUCUUUCACGUGCGCGUGAGAGAGAGAAGUGAACCAGAGAAACACACGUUUUGGUAUAUUACCUGGUA | 0.586 |
| GUCCUCUUUCACGUGCGCGUGAGAGAGAGAAGUGAACCAGAGAAACACACGUUGUCGUAUAUUACCUGGUA | 0.145 |
| GUCCUCUUUCACGUGCGCGUGAGAGAGAGAAGUGAACCAGAGAAACACACGUUGUUGUAUAUUACCUGGUA | 0.162 |
| GUCCUCUUUCACGUGCGCGUGAGAGAGAGAAGUGAACCAGAGAAACACACGUUGUGGUAUAUUACCUAGUA | 0.311 |
| GUCCUCUUUCACGUGCGCGUGAGAGAGAGAAGUGAACCAGAGAAACACACGUUGUGGUAUAUUACCUCGUA | 0.101 |
| GUCCUCUUUCACGUGCGCGUGAGAGAGAGAAGUGAACCAGAGAAACACACGUUGUGGUAUAUUACCUUGUA | 0.198 |
| GUCCUCUUUCACGUGCGCGUGAGAGAGAGAAGUGAACCAGAGAAACACACGUUGUGGUAUAUUACCUGCUA | 0.303 |
| GUCCUCUUUCACGUGCGCGUGAGAGAGAGAAGCGAACCAGAGAAACACACGUUGUGGUAUAUUACCUGGUA | 0.0496 |
| GUCCUCUUUCACGUGCGCGUGAGAGAGAGAAGUGAACCAGAGAAACACACGGUGUGGUAUAUUACCUGGUA | 0.78 |
| GUCCUCUUUCACGUGCGCGUGAGAGAGAGAAGUGAACCAGAGAAACACACGUCGUGGUAUAUUACCUGGUA | 0.995 |
| GUCCUCUUUCACGUGCGCGUGAGAGAGAGAAGUGAACCAGAGAAACACACGUUGGGGUAUAUUACCUGGUA | 0.192 |
| GUCCUCUUUCACGUGCGCGUGAGAGAGAGAAGUGAACCAGAGAAACACACGUUGUGGAAUAUUACCUGGUA | 0.662 |
| GUCCUCUUUCACGUGCGCGUGAGAGAGAGAAGUGAACCAGAGAAACACACGUUGUGGUACAUUACCUGGUA | 0.924 |
| GUCCUCUUUCACGUGCGCGUGAGAGAGAGAAGUGAACCAGAGAAACACACGUUGUGGUAGAUUACCUGGUA | 0.516 |
| GUCCUCUUUCACGUGCGCGUGAGAGAGAGAAGUGAACCAGAGAAACACACGUUGUGGUAUACUACCUGGUA | 0.43 |
| GUCCUCUUUCACGUGCGCGUGAGAGAGAGAAGUGAACCAGAGAAACACACGUUGUGGUAUAGUACCUGGUA | 0.0705 |
| GUCCUCUUUCACGUGCGCGUGAGAGAGAGAAGUGAACCAGAGAAACACACGUUGUGGUAUAUGACCUGGUA | 0.338 |
| GUCCUCUUUCACGUGCGCGUGAGAGAGAGAAGUGAACCAGAGAAACACACGUUGUGGUAUAUUACCGGGUA | 0.18 |
| GUCCUCUUUCACGUGCGCGUGAGAGAGAGAAGUGAACCAGAGAAACACACGUUGUGGUAUAUUACCUGGCA | 0.934 |
| GUCCUCUUUCACGUGCGCGUGAUAGAGAGAAGUGAACCAGAGAAACACACGUUGUGGUAUAUUACCUGGUA | 0.852 |
| GUCCUCUUUCACGUGCGCGUGAUUGAGAGAAGUGAACCAGAGAAACACACGUUGUGGUAUAUUACCUGGUA | 0.737 |
| GUCCUCUUUCACGUGCGCGUGAUAGGGAGAAGUGAACCAGAGAAACACACGUUGUGGUAUAUUACCUGGUA | 0.88 |
| GUCCUCUUUCACGUGCGCGUGAUAGAGGGAAGUGAACCAGAGAAACACACGUUGUGGUAUAUUACCUGGUA | 0.956 |
| GUCCUCUUUCACGUGCGCGUGAUAGAGAGAAGUGAGCCAGAGAAACACACGUUGUGGUAUAUUACCUGGUA | 0.681 |
